What all share (experiment): EMSA
(In EMSA bound probe runs differently from free probe, usually more slowly.)

In one series the target is T1, AtPOT1a_N (Arabidopsis thaliana, UniProt Q56Y52 1-300).
T1 sequence: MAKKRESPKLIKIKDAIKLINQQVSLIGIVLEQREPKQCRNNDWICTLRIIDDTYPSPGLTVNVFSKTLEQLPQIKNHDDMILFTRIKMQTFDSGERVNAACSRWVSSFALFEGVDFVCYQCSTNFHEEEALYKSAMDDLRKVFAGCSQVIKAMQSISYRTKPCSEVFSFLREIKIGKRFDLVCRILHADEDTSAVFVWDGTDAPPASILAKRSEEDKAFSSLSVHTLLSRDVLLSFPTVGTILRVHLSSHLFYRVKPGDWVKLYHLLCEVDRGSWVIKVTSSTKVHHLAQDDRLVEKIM

The target of another series is T2, AlPOT1b (Arabidopsis lyrata, UniProt B7T1J2 1-450).
T2 sequence: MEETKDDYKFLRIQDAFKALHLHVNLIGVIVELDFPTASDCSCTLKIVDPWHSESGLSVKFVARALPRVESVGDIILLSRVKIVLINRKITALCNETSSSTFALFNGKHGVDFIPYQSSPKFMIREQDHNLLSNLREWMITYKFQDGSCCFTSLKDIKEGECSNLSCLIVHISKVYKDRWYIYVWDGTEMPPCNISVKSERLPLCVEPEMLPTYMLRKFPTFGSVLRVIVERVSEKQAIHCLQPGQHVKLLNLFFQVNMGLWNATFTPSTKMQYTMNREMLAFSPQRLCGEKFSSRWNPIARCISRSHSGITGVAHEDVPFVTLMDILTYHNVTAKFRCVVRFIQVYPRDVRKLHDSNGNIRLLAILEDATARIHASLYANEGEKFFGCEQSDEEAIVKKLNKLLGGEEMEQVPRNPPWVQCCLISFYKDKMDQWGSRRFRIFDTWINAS

The next series addresses T3, AlPOT1a (Arabidopsis lyrata, UniProt B7T1J1 1-467).
T3 sequence: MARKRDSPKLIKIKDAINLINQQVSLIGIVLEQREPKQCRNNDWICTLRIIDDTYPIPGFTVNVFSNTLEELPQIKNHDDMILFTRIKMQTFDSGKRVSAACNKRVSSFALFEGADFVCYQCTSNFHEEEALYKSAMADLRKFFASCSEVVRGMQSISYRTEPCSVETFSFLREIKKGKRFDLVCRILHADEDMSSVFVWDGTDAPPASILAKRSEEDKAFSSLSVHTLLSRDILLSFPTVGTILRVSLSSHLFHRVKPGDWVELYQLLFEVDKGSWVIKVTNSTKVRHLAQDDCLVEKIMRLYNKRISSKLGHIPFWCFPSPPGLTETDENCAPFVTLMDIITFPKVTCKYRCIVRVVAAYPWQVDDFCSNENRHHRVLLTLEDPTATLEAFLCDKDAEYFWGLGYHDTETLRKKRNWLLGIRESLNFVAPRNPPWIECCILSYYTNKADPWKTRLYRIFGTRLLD

The target in another series is T4, AtPOT1b_N (Arabidopsis thaliana, UniProt Q6NKX5 1-300).
T4 sequence: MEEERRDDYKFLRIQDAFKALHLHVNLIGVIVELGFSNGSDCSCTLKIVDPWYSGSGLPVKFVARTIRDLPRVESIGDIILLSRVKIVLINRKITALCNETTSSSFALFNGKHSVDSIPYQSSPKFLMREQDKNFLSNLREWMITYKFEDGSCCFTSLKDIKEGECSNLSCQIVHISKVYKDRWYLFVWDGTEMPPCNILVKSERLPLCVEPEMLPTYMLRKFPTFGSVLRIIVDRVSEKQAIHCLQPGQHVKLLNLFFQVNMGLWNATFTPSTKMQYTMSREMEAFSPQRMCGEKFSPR

For the next series, the target named is T5, BoPOT1a (Brassica oleracea (cauliflower, …, UniProt B7T1J7 1-456)).
T5 sequence: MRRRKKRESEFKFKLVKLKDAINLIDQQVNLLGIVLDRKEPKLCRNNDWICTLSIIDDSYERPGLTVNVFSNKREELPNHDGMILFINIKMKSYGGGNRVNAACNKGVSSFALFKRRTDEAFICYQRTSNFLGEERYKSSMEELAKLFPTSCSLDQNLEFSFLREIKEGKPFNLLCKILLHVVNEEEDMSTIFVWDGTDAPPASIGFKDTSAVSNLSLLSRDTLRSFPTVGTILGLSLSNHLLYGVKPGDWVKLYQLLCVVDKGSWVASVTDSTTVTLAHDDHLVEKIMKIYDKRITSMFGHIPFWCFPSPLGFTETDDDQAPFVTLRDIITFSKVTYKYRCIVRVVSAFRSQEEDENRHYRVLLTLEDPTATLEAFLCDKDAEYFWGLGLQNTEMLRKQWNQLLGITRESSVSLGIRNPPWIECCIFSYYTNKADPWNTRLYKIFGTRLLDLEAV

The target of a further series is T6, BoPOT1b (Brassica oleracea (cauliflower, …, UniProt B7T1J8 1-450)).
T6 sequence: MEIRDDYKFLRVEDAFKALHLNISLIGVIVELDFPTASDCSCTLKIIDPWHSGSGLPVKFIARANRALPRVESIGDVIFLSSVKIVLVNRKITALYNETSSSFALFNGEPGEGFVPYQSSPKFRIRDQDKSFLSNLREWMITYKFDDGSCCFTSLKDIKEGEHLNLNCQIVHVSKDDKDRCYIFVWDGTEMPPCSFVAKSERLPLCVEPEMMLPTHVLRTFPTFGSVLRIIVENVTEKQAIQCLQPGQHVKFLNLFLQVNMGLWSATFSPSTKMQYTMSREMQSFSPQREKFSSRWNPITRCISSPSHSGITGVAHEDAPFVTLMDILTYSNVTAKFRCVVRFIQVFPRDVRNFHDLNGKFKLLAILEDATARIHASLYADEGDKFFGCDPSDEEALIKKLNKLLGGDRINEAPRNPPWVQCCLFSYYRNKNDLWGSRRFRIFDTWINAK

Another series deals with T7, AtPOT1a (Arabidopsis thaliana, UniProt Q56Y52 1-467).
T7 sequence: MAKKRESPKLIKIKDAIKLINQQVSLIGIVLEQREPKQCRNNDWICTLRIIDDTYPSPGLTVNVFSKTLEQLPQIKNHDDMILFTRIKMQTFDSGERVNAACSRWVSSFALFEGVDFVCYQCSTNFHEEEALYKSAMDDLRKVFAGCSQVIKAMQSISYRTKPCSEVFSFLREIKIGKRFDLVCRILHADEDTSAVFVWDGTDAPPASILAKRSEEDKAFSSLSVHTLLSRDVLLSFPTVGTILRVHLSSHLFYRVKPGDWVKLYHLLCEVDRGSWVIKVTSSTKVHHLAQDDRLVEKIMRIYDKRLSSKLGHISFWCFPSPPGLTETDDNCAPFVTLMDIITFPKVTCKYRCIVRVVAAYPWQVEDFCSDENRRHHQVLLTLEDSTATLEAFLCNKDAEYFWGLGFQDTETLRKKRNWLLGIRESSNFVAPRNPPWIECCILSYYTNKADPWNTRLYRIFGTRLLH

In the next series the target is T8, AtPOT1b (Arabidopsis thaliana, UniProt Q6NKX5 1-454).
T8 sequence: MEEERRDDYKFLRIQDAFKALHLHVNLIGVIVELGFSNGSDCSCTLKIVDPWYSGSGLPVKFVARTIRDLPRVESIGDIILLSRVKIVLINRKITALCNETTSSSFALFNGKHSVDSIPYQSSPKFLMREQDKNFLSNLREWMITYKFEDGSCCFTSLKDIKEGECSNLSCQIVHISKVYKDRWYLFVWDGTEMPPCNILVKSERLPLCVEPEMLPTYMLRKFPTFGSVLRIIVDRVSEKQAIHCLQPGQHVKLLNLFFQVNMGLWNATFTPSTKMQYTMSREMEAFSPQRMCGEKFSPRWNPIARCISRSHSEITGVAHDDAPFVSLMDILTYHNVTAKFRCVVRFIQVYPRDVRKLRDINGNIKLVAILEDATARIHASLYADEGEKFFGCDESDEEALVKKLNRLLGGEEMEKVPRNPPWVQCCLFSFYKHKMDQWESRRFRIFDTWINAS

The target of series [1] is T9, mPOT1a_N (OB-fold domains of mouse POT1a) (mouse, UniProt Q91WC1 1-299).
T9 sequence: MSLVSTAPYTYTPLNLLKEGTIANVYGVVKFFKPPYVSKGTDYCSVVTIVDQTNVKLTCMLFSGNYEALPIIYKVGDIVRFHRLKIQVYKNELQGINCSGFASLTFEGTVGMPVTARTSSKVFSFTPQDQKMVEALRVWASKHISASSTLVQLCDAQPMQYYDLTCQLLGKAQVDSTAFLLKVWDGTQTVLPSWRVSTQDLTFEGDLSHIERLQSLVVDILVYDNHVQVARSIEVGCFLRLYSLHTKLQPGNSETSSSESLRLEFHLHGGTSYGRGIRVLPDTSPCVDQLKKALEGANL

B1: (TTTAGGG)5 (ssDNA)
DNA: TTTAGGGTTTAGGGTTTAGGGTTTAGGGTTTAGGG
As to B1, the binding result with AtPOT1a_N, with AlPOT1b, in the series with AlPOT1a, in the series with AtPOT1b_N, in the series with BoPOT1a and with BoPOT1b was “no binding” in each case. Moreover, the binding result with AtPOT1a and with AtPOT1b was “no binding” each time.

B2: (GGTTAG)2 vertebrate telomere repeat (ssDNA)
DNA: GGTTAGGGTTAG
B2: the binding result in series [1] is given as “binds”.

B3: C-rich plant telomere repeat, five copies (ssDNA)
DNA: CCCTAAACCCTAAACCCTAAACCCTAAACCCTAAA
For the molecule B3, the binding result in the series with AtPOT1a and in the series with AtPOT1b was “no binding” each time.

B4: (TTTAGGG)2 (ssDNA)
DNA: TTTAGGGTTTAGGG
Consider B4, for which the binding result with AtPOT1a_N, in the series with AlPOT1b, with AlPOT1a, with AtPOT1b_N, with BoPOT1a and in the series with BoPOT1b was “no binding” throughout. For the same molecule, the binding result with AtPOT1a and with AtPOT1b was “no binding” each time.

These data come from article PMC5880214.
